Patent US20250333497A1, “ACTIVATING ANTIBODIES OF RECEPTOR PROTEINS PLXDC1 AND PLXDC2” (THE REGENTS OF THE UNIVERSITY OF CALIFORNIA, priority 2022, published 2025)

Key:
[1] = system: PLXDC1; experiment: Antibody binding to PLXDC1 with and without small molecule agonist compound 369 (FIG. 5)
[2] = system: human lung tumor endothelial cells expressing PLXDC1; experiment: Ex vivo tumor angiogenesis model: killing of tumor endothelial cells; format: cell-based; details: signal day 1 vs day 8, 500 nM printed for 3-G7
Description: The following protocol describes the Ex Vivo Tumor Angiogenesis Model.
1. The day before the experiment, all necessary tools were sprayed with 70% ethanol and sterilized under UV light overnight, including blade, dissecting and micro-dissecting scissors and […]. 24-well dishes were placed at 4° C. to pre-chill plates and Matrigel was thawed, 24 hours before tumor dissection.
2. 70% ethanol was sprayed on working bench. Two sterile petri dishes were prepared with 10 ml sterile PBS. The following steps 3 and 4 are necessary for mouse tumor models. For fresh human tumor, steps 3 and 4 are skipped.
3. The tumor-bearing mice were euthanized. 70% ethanol was sprayed on the mouse and the tumor was removed using sterilized dissecting tools (avoid the fur). The tumor was rinsed in petri dish with sterile PBS to remove ethanol and fur. The tumor was transferred to a new petri dish with PBS for dissection. The dish is placed on ice.
4. […]
9. When the assay was ready to be analyzed for cell death (e.g., 48 hours after drug addition), the dye mixture was prepared by mixing 6 μl of green dye to stain live cells (5 mg/ml Fluorescein diacetate or FDA in DMSO) with 30 μl of red dye (2.5 mg/ml Propidium iodide or PI in PBS) to stain dead cells in an Eppendorf tube. […]
14. Taking pictures in the red and green channels would allow not only the recording of the results but also more accurate quantitation of the results. […]

[3] = biological target: T1, Domain A-deleted PLXDC1 (PLXDC1-dA) (Homo sapiens, UniProt Q8IUK5); experiment: Domain A binding specificity: binding to Domain A-deleted PLXDC1 expressed in transfected cells
T1 construct: expressed in transfected cells
Source text: (§1) The specific binding to Domain A of a PLXDC protein can be tested with a method described herein. In some embodiments, the method employs a PLXDC with the Domain A deleted. […] An example is Compound 369 as described above.
(§2) The Domain A-binding antibodies are 3-C11, 4-A8, 5-E2, 2-H2, 3-G6, 3-G7, 8-A7, 8-A9, 8-C9 and 8-D9.
(§3) Both full length PLXDC1 and Domain A deleted PLXDC1 (PLXDC1-dA) have an epitope tag on the N-terminus.

[4] = biological target: T2, full length PLXDC1 (PLXDC1-Full) (Homo sapiens, UniProt Q8IUK5); experiment: Domain A binding specificity: binding to full length PLXDC1 expressed in transfected cells
T2 construct: expressed in transfected cells
T2 sequence (Q8IUK5 19-500): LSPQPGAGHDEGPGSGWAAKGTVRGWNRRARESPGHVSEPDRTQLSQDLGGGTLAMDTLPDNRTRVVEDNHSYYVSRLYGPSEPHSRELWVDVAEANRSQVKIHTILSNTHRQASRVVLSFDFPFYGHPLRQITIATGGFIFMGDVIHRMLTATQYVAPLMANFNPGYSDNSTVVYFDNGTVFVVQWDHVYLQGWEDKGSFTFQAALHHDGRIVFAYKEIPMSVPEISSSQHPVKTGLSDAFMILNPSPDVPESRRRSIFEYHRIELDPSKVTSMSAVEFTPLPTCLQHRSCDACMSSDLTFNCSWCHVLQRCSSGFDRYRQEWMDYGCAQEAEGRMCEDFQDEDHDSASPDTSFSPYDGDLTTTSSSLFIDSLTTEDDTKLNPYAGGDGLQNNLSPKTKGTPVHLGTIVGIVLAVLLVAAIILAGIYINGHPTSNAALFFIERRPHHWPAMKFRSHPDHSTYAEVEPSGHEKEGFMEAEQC
Source text: as §1, §2, §3

[5] = system: PLXDC1; experiment: Promotor activity in PLXDC1-expressing cells (activation of PLXDC signaling); format: cell-based
Source text: This example tested some of the identified antibodies for their activity in activating PLXDC signaling.

[6] = antibodies of Table 3 tested for ability to bind Domain A
[7] = transfected into a cell line that does not express PLXDC1, FIG. 3-4

B1: A006: VH SEQ ID NO:72, VL SEQ ID NO:73; Domain A-binding PLXDC1-activating antibody (antibody, V domains shown)
VH: QVQLVQSGAEVKKPGSSVKVSCKASGGTFSTEYISWVRQAPGQGLEWMGRIIPVLGITNYAQKFQGRVTITADESTSTAYMELSSLRSEDTAVYYCARHLGPPYLVTYSHGFDVWGQGTLVTVSS
VL: EIVMTQSPATLSVSPGERATLSCRASQSLGTNLAWYQQKPGQAPRLLIYGASTRATGIPARFSGSGSGTEFTLTISSLQSEDFAVYYCQQYYEAPPTFGQGTKVEIK
affinity to PLXDC1 when compound 369 was added ([1]; small molecule agonist compound 369 present, FIG. 5 upper curve): greatly higher affinity | affinity to standalone PLXDC1 ([1]; without compound 369, FIG. 5 lower curve): low nM affinity | death of tumor endothelial cells expressing PLXDC1 [2]: led to the death of tumor endothelial cells expressing PLXDC1 | binding to PLXDC1 mutant with Domain A deleted [3, 6]: not the mutant with Domain A deleted | binding to Domain A-deleted PLXDC1 (PLXDC1-dA) [3, 7]: did not bind to Domain A-deleted PLXDC1 | binding to PLXDC1 [4, 6]: able to bind PLXDC1 | binding to full length PLXDC1 (PLXDC1-Full) [4, 7]: only bound to full length PLXDC1 | promotor activity in PLXDC1-expressing cells ([5]; PLXDC1-expressing cells): activated the promotor activity | promotor activity in cells without PLXDC1 ([5]; cells without PLXDC1): not in cells without PLXDC1
